Laboratory results reported in the supplement of paper PMC10567573.

B1: ZNF263 (parent)
chain: VPGTQVGQGGKLWDPSVQSCKEGL

Variants of: B1
Assay: protein stability index of a GFP-peptide fusion (GPS, HEK-293T) (PSI 1-6); higher = more stable
Details: c terminus: a fixed tail appended
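Note: lentivirally expressed fusions sorted by FACS into six bins by GFP to DsRed ratio, PSI derived from sequencing read proportions per bin multiplied by bin number.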

Row | Variant | protein stability index
1 | W13P | 4.72
2 | W13Q | 4.79
3 | W13V | 4.88
4 | W13I | 4.66
5 | W13T | 4.79
6 | W13D | 4.4
7 | W13G | 5.5
8 | W13R | 4.71
9 | W13F | 4.59
10 | W13H | 4.66
11 | W13A | 4.8
12 | W13M | 4.41
13 | W13E | 5.29
14 | W13Y | 4.57
15 | W13K | 4.61
16 | W13S | 4.54
17 | W13C | 4.76
18 | W13L | 4.8
19 | W13N | 5.12
20 | S16I | 3.15
21 | S16Q | 4.38
22 | S16C | 4.11
23 | S16T | 4.58
24 | S16H | 4.27

Row | Variant | protein stability index
25 | S16Y | 3.68
26 | S16V | 4.02
27 | S16A | 4.88
28 | S16R | 3.12
29 | S16D | 4.93
30 | S16G | 4.21
31 | S16N | 3.89
32 | S16E | 4.73
33 | S16W | 3.17
34 | S16P | 4.45
35 | S16M | 3.92
36 | S16F | 3.12
37 | S16L | 3.53
38 | S16K | 4.11
39 | L12I | 3.65
40 | L12M | 4.07
41 | L12V | 4.42
42 | L12C | 3.94
43 | L12Y | 3.79
44 | L12F | 4.26
45 | L12K | 4.37
46 | L12T | 4.34
47 | L12A | 3.4
48 | L12E | 3.97

Row | Variant | protein stability index
49 | L12D | 4.89
50 | L12G | 3.97
51 | L12W | 4.01
52 | L12H | 4.45
53 | L12Q | 4.72
54 | L12N | 4.42
55 | L12R | 4.36
56 | L12P | 5.07
57 | L12S | 4.3
58 | K11S | 4.35
59 | K11T | 4.31
60 | K11W | 3.72
61 | K11V | 3.61
62 | K11Y | 4.12
63 | S19Q | 4.3
64 | S19G | 4.41
65 | S19A | 4.35
66 | S19N | 4.39
67 | S19I | 3.77
68 | S19V | 4.31
69 | S19L | 4.04
70 | S19C | 3.39
71 | S19Y | 3.76
72 | S19E | 4.38

Row | Variant | protein stability index
73 | S19K | 4.25
74 | S19H | 4.05
75 | S19P | 4.33
76 | S19D | 4.88
77 | S19W | 3.38
78 | S19T | 4.29
79 | S19M | 3.69
80 | S19F | 3.98
81 | S19R | 3.89
82 | V17Q | 3.8
83 | V17D | 4.92
84 | V17K | 4.33
85 | V17A | 4.38
86 | V17M | 4.06
87 | V17L | 4.08
88 | V17R | 4.23
89 | V17C | 4.15
90 | V17I | 3.89
91 | V17G | 3.99
92 | V17N | 4.07
93 | V17T | 3.74
94 | V17E | 5.16
95 | V17F | 3.38
96 | V17P | 4.24

Row | Variant | protein stability index
97 | V17S | 4.92
98 | V17Y | 4.1
99 | V17H | 4.1
100 | P15Y | 3.16
101 | P15H | 4.01
102 | P15A | 4.22
103 | P15G | 4.35
104 | P15E | 4.94
105 | P15S | 4.03
106 | P15N | 4.13
107 | P15C | 3.75
108 | P15F | 2.86
109 | P15R | 4.16
110 | P15L | 4.8
111 | P15T | 4.25
112 | P15K | 4.23
113 | P15V | 3.63
114 | P15M | 3.54
115 | P15I | 3.3
116 | P15D | 4.29
117 | P15W | 3.17
118 | P15Q | 4.25
119 | C20F | 3.1
120 | C20H | 3.6

Row | Variant | protein stability index
121 | C20I | 3.79
122 | C20N | 4.68
123 | C20D | 4.59
124 | C20A | 4.15
125 | C20L | 4.05
126 | C20E | 5.02
127 | C20P | 4.33
128 | C20K | 4.13
129 | C20G | 4.74
130 | C20M | 4.43
131 | D14E | 3.78
132 | D14R | 3.05
133 | D14F | 3.07
134 | D14G | 4.1
135 | D14H | 4.08
136 | D14W | 3.19
137 | D14P | 3.44
138 | D14N | 3.72
139 | D14T | 3.79
140 | D14Y | 3.11
141 | D14S | 3.99
142 | D14C | 3.35
143 | D14V | 3.87
144 | D14I | 3.66

Row | Variant | protein stability index
145 | D14A | 4.14
146 | D14K | 3.51
147 | D14Q | 4.09
148 | D14M | 3.36
149 | Q18M | 4.38
150 | Q18D | 4.54
151 | Q18Y | 4.01
152 | Q18F | 3.2
153 | Q18I | 4.01
154 | Q18P | 4.38
155 | Q18G | 4.92
156 | Q18V | 3.87
157 | Q18H | 3.89
158 | Q18T | 4.47
159 | Q18R | 3.05
160 | Q18K | 4.39
161 | Q18E | 4.7
162 | Q18C | 3.63
163 | Q18S | 3.88
164 | Q18L | 3.97
165 | Q18N | 3.42
166 | Q18W | 3
167 | Q18A | 3.46
